Results as given in US12551571B2, “Protease-cleavable substrates and methods of use thereof” (CytomX Therapeutics, Inc., priority 2022, dated 2026).
Square brackets hold non-standard residues; d marks the D form. Ends that are not written are not given here. Peptide text beside a SMILES is read from it. * marks the point of attachment. Dnp = O=[N+]([O-])c1ccc(*)c([N+](=O)[O-])c1; Mca = COc1ccc2c(CC(=O)*)cc(=O)oc2c1

Key:
MMP14 = MMP14 (Homo sapiens, UniProt P50281); assay: Internally quenched peptide probe cleavage assay, MMP14; type: biochemical; details: internally quenched peptide probe 20 μM (20 pM in source), 20 nM protease, 37° C.
Procedure: (§1) The CMs listed in Table 9 below were presented in an internally quenched peptide probe format, rather than included in an activatable antibody format. […] Cleavability kinetics (i.e., pM/s and kcat/KM (M^-1s^-1)) were determined in 96- or 384-well plate format at 37° C. in the following buffers: 50 mM TRIS-HCl (pH 7.4), 150 mM NaCl, 0.05% Tween 20 for MT-SP1, 50 mM Tris-HCl (pH 7.5), 10 mM CaCl2, 150 mM NaCl, 0.05% (w/v) Brij-35 for MMP2 and MMP9, and 50 mM HEPES (pH 6.8), 10 mM CaCl2, 0.5 mM MgCl2, 0.05% (w/v) Brij-35 for MMP14. Cleavability kinetics were determined on an Infinite 200 PRO (Tecan) multimode plate reader using a fluorescence excitation wavelength of 320 nm and an emission wavelength of 405 nm. […] The CMs listed in Table 12 below were presented in an internally quenched peptide probe format, rather than included in an activatable antibody format. […] Cleavability kinetics (i.e., pM/s) were determined in 96- or 384-well plate format at 37° C. in the following buffers: 50 mM TRIS-HCl (pH 7.4), 150 mM NaCl, 0.05% Tween 20 for MT-SP1, 50 mM Tris-HCl (pH 7.5), 10 mM CaCl2, 150 mM NaCl, 0.05% (w/v) Brij-35 for MMP2 and MMP9, and 50 mM HEPES (pH 6.8), 10 mM CaCl2, 0.5 mM MgCl2, 0.05% (w/v) Brij-35 for MMP14. Cleavability kinetics were determined on an Infinite 200 PRO (Tecan) multimode plate reader using a fluorescence excitation wavelength of 320 nm and an emission wavelength of 405 nm.

MT-SP1 = target: T1, MT-SP1 (Homo sapiens, UniProt Q9Y5Y6); assay: Internally quenched peptide probe cleavage assay, MT-SP1; type: biochemical; details: internally quenched peptide probe 20 μM (20 pM in source), 20 nM protease, 37° C.
T1 sequence (Q9Y5Y6 1-855): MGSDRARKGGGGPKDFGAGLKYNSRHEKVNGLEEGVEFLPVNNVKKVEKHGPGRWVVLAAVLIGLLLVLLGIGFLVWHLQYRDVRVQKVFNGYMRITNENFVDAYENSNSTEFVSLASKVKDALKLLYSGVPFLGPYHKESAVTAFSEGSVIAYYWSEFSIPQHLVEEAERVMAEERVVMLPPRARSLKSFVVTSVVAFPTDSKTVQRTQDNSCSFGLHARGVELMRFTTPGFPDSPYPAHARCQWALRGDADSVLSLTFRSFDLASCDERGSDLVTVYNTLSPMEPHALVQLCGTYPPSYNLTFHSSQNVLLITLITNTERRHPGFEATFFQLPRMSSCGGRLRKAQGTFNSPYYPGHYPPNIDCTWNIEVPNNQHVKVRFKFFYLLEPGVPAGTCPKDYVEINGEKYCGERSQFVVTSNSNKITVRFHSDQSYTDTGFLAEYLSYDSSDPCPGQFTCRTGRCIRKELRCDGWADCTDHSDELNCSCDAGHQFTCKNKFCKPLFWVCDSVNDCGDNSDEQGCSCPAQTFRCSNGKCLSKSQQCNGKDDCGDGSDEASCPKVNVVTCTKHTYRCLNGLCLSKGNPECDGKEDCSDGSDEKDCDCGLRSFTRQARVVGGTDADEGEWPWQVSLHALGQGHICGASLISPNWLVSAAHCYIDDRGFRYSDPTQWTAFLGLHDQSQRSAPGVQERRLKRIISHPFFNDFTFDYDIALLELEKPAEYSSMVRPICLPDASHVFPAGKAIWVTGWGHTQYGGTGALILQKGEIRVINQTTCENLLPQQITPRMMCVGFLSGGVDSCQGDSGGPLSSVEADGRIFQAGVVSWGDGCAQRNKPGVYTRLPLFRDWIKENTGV
Procedure: as §1

MMP9 = MMP9 (Homo sapiens, UniProt P14780); assay: Internally quenched peptide probe cleavage assay, MMP9; type: biochemical; details: internally quenched peptide probe 20 μM (20 pM in source), 20 nM protease, 37° C.
Sequence of MMP9 (P14780 94-707): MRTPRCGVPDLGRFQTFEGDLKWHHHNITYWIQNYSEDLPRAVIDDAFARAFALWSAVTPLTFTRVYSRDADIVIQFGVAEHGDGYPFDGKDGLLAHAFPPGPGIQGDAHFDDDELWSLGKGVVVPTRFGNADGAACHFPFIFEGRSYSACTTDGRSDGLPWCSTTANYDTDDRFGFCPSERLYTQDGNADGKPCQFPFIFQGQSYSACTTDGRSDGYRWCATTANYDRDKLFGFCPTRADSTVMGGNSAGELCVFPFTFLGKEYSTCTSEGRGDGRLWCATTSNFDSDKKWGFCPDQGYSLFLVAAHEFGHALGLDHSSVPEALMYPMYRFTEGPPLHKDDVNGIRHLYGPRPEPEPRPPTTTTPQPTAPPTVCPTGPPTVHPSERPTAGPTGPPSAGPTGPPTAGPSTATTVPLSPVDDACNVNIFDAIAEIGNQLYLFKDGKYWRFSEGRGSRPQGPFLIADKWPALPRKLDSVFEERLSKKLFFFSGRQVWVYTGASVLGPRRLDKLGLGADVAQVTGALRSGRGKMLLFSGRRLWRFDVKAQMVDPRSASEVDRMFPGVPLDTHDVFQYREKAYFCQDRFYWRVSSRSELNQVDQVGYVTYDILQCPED
Procedure: as §1

MMP2 = target: T2, MMP2 (Homo sapiens, UniProt P08253); assay: Internally quenched peptide probe cleavage assay, MMP2; type: biochemical; details: internally quenched peptide probe 20 μM (20 pM in source), 20 nM protease, 37° C.
T2 sequence (P08253 110-660): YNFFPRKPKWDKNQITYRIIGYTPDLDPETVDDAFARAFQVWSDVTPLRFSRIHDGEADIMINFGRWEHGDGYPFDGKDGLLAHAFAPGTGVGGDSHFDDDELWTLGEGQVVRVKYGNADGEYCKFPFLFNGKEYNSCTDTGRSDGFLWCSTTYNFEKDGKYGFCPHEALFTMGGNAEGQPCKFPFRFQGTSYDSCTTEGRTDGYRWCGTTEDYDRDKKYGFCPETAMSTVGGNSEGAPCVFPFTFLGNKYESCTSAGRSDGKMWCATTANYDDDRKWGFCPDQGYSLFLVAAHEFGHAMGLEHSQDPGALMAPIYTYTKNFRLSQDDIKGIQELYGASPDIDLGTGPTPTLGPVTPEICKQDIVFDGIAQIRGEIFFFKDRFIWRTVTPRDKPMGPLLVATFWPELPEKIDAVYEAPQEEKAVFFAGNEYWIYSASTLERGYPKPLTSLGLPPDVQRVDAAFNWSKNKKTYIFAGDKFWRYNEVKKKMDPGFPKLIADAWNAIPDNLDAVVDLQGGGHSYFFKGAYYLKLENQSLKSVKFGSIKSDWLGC
Procedure: as §1

[1] = system: supernatant from human bone marrow aspirates; assay: In situ stability of peptide probes in supernatant from human bone marrow aspirates; details: 20 μM peptide probe, 37° C.

Row | Molecule | Probe Cleavage (pM/s) MMP14 (MMP14) [pM/s] | Probe Cleavage (pM/s) MT-SP1 (MT-SP1) [pM/s] | Probe Cleavage (pM/s) MMP9 (MMP9) [pM/s] | Probe Cleavage (pM/s) MMP2 (MMP2) [pM/s] | cleavage rate in supernatant from human bone marrow aspirates [1] [pM/s]
1 | HQSRPWGL (also: MCA, Lys(DNP), D-Arg labels, places not given here) | 548 | 32.0 |  |  | 
2 | HQSRSGPWGAL (Mca-HQSRSGPWGAL-{Lys(DNP)-dR}) | 0.00 |  | 5.9 | 61.1 | 
3 | HQSRAGPWGLL (Mca-HQSRAGPWGLL-{Lys(DNP)-dR}) | 379 |  |  | 594 | 
4 | HQSRSPWG (Mca-HQSRSPWG-{Lys(DNP)-dR}) | 0.00 |  | 86.5 | 61.6 | 
5 | HQSRSAPWGLL (Mca-HQSRSAPWGLL-{Lys(DNP)-dR}) | 660 |  |  |  | 
6 | HQSRSAIALY (also: MCA, Gly-Lys(DNP)-D-Arg labels, places not given here) [X1 is Y] | 92.7 | 1960 | 328 | 434 | 
7 | HQSASGPWGLL (also: MCA, Lys(DNP), D-Arg labels, places not given here) | 335 | 8.00 |  | 696 | 
8 | HQSRSGAWGLL (Mca-HQSRSGAWGLL-{Lys(DNP)-dR}) | 36.4 |  | 436 | 65.4 | 
9 | PWGLHQSRS (also: MCA, Lys(DNP)-D-Arg labels, places not given here) | 5880 | 1280 | 5150 | 2550 | 302
10 | HQARSGPWGLL (Mca-HQARSGPWGLL-{Lys(DNP)-dR}) | 344 |  |  | 623 | 
11 | HQSRSAIAL (Mca-HQSRSAIAL-{Lys(DNP)-dR}) | 95.5 |  | 41.9 | 76.9 | 
12 | AQSRSGPWGLL (Mca-AQSRSGPWGLL-{Lys(DNP)-dR}) | 437 |  |  | 726 | 
13 | HQSRSGPWGL (Mca-HQSRSGPWGL-{Lys(DNP)-dR}) [X1 absent] | 27.3 |  | 705 | 94.8 | 
14 | COc1ccc2c(CC(=O)N[C@@H](CO)C(=O)N3CCC[C@H]3C(=O)N[C@@H](C)C(=O)NCC(=O)N[C@@H](CC(C)C)C(=O)N[C@@H](CO)C(=O)NCC(=O)N[C@@H](CCCNC(=N)N)C(=O)N[C@@H](CO)C(=O)NCC(=O)N[C@@H](CCCCNc3ccc([N+](=O)[O-])cc3[N+](=O)[O-])C(=O)N[C@H](CCCNC(=N)N)C(=O)O)cc(=O)oc2c1 [reference compound] (Mca-SPAGLSGRSGK(Dnp)[dR]-OH) |  |  |  |  | 2191
15 | HASRSGPWGLL (Mca-HASRSGPWGLL-{Lys(DNP)-dR}) | 424 |  |  | 692 | 
16 | AIALHQSRS (also: MCA, Lys(DNP), D-Arg labels, places not given here) | 1280 | 11500 | 2550 | 4220 | 
17 | HQSRSGPWALL (Mca-HQSRSGPWALL-{Lys(DNP)-dR}) | 475 |  |  | 488 | 
18 | HQSRSGPWGLA (Mca-HQSRSGPWGLA-{Lys(DNP)-dR}) | 345 |  |  | 410 | 
19 | HQSRSAIALYA (also: MCA, Lys(DNP), D-Arg labels, places not given here) [X1 is Y and X2 is A] | 300 | 1750 | 255 | 468 | 
